Substitutions are numbered along the chain they refer to. Names and notes keep the numbering of the source.
Key:
[1] = molecular target: T1, c-MET on human target cells (human, UniProt P08581 25-1390); assay: cell-based or functional assay
[2] = molecular target: T1, c-MET on human target cells; assay: cell-based or functional assay; remark: listed apart in the source
[3] = molecular target: T1, c-MET on human target cells; assay: cell-based or functional assay; remark: listed apart in the source
[4] = molecular target: T1, c-MET on human target cells; assay: cell-based or functional assay; remark: listed apart in the source
[5] = molecular target: T2, AF647 labeled c-met protein (UniProt P08581 25-932, limits assumed, labeled with AlexaFluor 647 (AF647)); assay: flow cytometry, AF647-labeled c-met protein titrated on CAR-T cells (Round 2)
T2 construct: Soluble labeled c-met protein titrated on CAR-T cells
Experimental: (§1) Binding of labeled c-MET to CAR-T cells expressing the affinity tuned c-MET scFvs was evaluated by transducing lentivirus anti-c-MET CAR particles into human T cells to form c-MET CAR-T cells incubated with AF647-labeled c-MET. […] Following a 48 hr. incubation at 37° C., the culture media was brought up to […] per well and incubated at 37° C. for 10 days.
(§2) Cells were stained on ice for 30 mins and then washed with PBS. After washing, residually bound protein on CAR T cells were measured on a flow cytometer (Beckman, CytoFLEX®). The resulting binding data was fit using a non-linear regression analysis on GraphPad Prism to calculate half effective dose concentration (EC₅₀) values. The results of this analysis are shown in FIGS. 2-5 and Tables 2-5 below.

[6] = molecular target: T1, c-MET on human target cells; assay: cell-based or functional assay; remark: listed apart in the source
[7] = molecular target: T2, AF647 labeled c-met protein; assay: flow cytometry, EC50 relative to parental Affy6 CAR-T cells (Round 2)
Experimental: as §1, §2

T1 sequence (P08581 25-1390): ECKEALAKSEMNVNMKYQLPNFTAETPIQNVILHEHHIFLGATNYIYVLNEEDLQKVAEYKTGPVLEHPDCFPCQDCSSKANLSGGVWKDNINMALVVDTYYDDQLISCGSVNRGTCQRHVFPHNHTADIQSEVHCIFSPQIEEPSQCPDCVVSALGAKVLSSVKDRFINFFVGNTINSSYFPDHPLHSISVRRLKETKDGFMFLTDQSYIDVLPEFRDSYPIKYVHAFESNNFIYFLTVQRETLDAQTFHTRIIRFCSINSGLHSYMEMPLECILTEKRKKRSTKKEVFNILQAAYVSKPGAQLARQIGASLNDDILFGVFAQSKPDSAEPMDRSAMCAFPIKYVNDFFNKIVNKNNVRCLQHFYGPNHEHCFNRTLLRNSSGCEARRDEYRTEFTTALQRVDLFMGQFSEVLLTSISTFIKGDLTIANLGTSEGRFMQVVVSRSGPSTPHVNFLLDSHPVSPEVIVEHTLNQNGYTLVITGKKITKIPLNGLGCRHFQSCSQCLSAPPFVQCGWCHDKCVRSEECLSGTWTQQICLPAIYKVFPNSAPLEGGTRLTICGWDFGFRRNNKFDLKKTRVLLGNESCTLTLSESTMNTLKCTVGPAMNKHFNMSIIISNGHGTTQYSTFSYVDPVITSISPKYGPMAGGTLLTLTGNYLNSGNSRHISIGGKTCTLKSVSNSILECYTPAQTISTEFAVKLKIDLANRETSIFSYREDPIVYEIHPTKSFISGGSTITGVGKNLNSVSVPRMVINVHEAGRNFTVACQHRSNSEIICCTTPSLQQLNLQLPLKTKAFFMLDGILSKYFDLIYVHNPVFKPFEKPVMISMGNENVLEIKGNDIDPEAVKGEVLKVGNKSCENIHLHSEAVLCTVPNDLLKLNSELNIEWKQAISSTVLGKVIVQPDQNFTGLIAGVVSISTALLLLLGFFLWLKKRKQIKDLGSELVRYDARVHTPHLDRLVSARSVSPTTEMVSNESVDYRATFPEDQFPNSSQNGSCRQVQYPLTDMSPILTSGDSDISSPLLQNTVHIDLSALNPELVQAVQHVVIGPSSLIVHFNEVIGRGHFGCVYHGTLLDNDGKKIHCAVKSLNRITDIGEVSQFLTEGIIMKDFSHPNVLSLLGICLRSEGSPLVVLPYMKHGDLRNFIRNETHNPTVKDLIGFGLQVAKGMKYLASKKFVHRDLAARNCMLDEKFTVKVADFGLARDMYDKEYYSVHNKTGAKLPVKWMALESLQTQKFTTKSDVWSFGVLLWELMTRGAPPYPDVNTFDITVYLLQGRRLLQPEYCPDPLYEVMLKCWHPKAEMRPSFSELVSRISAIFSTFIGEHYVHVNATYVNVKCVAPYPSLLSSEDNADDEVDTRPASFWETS
T2 sequence (P08581 25-932 limits assumed): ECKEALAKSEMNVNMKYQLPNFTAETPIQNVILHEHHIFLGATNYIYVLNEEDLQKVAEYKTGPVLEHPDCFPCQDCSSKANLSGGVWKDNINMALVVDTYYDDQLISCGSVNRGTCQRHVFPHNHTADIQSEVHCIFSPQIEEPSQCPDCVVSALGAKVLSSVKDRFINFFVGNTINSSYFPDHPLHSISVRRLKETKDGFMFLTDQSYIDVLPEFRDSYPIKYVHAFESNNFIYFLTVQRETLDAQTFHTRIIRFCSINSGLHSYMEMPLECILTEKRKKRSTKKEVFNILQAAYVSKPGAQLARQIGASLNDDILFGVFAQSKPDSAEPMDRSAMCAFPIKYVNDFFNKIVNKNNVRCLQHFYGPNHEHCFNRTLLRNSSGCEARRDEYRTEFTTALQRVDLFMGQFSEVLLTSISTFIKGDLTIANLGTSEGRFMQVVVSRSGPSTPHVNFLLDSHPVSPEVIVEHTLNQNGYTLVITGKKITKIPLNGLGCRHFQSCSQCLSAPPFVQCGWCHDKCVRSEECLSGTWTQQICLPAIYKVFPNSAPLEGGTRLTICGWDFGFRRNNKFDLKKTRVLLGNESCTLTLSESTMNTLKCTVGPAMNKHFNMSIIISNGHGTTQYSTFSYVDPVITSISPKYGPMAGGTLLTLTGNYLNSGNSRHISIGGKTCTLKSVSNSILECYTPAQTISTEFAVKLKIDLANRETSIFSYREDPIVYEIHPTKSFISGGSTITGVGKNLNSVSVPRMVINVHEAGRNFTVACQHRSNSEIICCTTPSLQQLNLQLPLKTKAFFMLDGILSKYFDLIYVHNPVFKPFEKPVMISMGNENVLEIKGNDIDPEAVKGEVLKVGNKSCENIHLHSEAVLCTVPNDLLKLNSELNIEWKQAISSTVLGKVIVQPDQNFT

B1: Affy6-I3F CAR (other)
chain: GSEQKLISEEDLGSQVQLVQSGAEVKKPGASVKVSCKASGYIFTAYTMHWVRQAPGQGLEWMGWIKPNNGLANYAQKFQGRVTMTRDTSISTAYMELSRLRSDDTAVYYCARSEFTTEFDYWGQGTLVTVSSGGGGSGGGGSGGGGSDIVLTQSPDSLAVSLGERATINCKSSESVDSYANSFMHWYQQKPGQPPKLLIYRASTRESGVPDRFSGSGSRTDFTLTISSLQAEDVAVYYCQQSKEDPLTFGGGTKVEIKASTTTPAPRPPTPAPTIASQPLSLRPEACRPAAGGAVHTRGLDFACDFWVLVVVGGVLACYSLLVTVAFIIFWVRSKRSRLLHSDYMNMTPRRPGPTRKHYQPYAPPRDFAAYRSLRVKFSRSADAPAYQQGQNQLYNELNLGRREEYDVLDKRRGRDPEMGGKPRRKNPQEGLYNELQKDKMAEAYSEIGMKGERRRGKGHDGLYQGLSTATKDTYDALHMQALPPR
notes: CAR on transduced human T cells; I to F in HC CDR3; P2A remnant not included; also called MycT-Affy6-I3F CAR-SSTR2
cytotoxicity, Normal Human Kidney Cells, 8 hrs [1]: 19.2 | cytotoxicity, Normal Human Kidney Cells, 16 hrs [1]: 28 | cytotoxicity, Normal Human Kidney Cells, 24 hrs [1]: 30.4 | cytotoxicity, Normal Human Kidney Cells, 32 hrs [1]: 27.8 | cytotoxicity, Normal Human Kidney Cells, 40 hrs [1]: 18.8 | cytotoxicity, Normal Human Kidney Cells, 48 hrs [1]: 16.5 | cytotoxicity, Normal Human Liver Cells, 8 hrs [2]: 15.3 | cytotoxicity, Normal Human Liver Cells, 16 hrs [2]: 24.7 | cytotoxicity, Normal Human Liver Cells, 24 hrs [2]: 31.8 | cytotoxicity, Normal Human Liver Cells, 32 hrs [2]: 34.8 | cytotoxicity, Normal Human Liver Cells, 40 hrs [2]: 34.8 | cytotoxicity, Normal Human Liver Cells, 48 hrs [2]: 31.8 | cytotoxicity, Normal Human Colon Cells, 8 hrs [3]: 13.2 | cytotoxicity, Normal Human Colon Cells, 16 hrs [3]: 19.2 | cytotoxicity, Normal Human Colon Cells, 24 hrs [3]: 22.4 | cytotoxicity, Normal Human Colon Cells, 32 hrs [3]: 13.3 | cytotoxicity, Normal Human Colon Cells, 40 hrs [3]: 1.6 | cytotoxicity, Normal Human Colon Cells, 48 hrs [3]: 8.3 | cytotoxicity, Normal Human Lung Cells, 8 hrs [4]: 17.1 | cytotoxicity, Normal Human Lung Cells, 16 hrs [4]: 16.4 | cytotoxicity, Normal Human Lung Cells, 24 hrs [4]: 19.1 | cytotoxicity, Normal Human Lung Cells, 32 hrs [4]: 18 | cytotoxicity, Normal Human Lung Cells, 40 hrs [4]: 29.4 | cytotoxicity, Normal Human Lung Cells, 48 hrs [4]: 34.8 | EC50 [5]: 20.5 µM | percent cytotoxicity, H1993, 24 hrs [6]: 64.7% | percent cytotoxicity, H1993, 48 hrs [6]: 91.3% | percent cytotoxicity, H1993, 72 hrs [6]: 97% | Fold Change [7]: 937 fold

B2: Affy6-I3G CAR (other)
chain: B1 chain with F115G
notes: CAR on transduced human T cells; I to G in HC CDR3; P2A remnant not included; also called MycT-Affy6-I3G CAR-SSTR2
cytotoxicity, Normal Human Kidney Cells, 8 hrs [1]: 10.1 | cytotoxicity, Normal Human Kidney Cells, 16 hrs [1]: 17.9 | cytotoxicity, Normal Human Kidney Cells, 24 hrs [1]: 17.2 | cytotoxicity, Normal Human Kidney Cells, 32 hrs [1]: 15.8 | cytotoxicity, Normal Human Kidney Cells, 40 hrs [1]: 10.2 | cytotoxicity, Normal Human Kidney Cells, 48 hrs [1]: 14 | cytotoxicity, Normal Human Liver Cells, 8 hrs [2]: 9.6 | cytotoxicity, Normal Human Liver Cells, 16 hrs [2]: 13.7 | cytotoxicity, Normal Human Liver Cells, 24 hrs [2]: 18.1 | cytotoxicity, Normal Human Liver Cells, 32 hrs [2]: 22.3 | cytotoxicity, Normal Human Liver Cells, 40 hrs [2]: 22.5 | cytotoxicity, Normal Human Liver Cells, 48 hrs [2]: 20.5 | cytotoxicity, Normal Human Colon Cells, 8 hrs [3]: 8.2 | cytotoxicity, Normal Human Colon Cells, 16 hrs [3]: 14.4 | cytotoxicity, Normal Human Colon Cells, 24 hrs [3]: 16.4 | cytotoxicity, Normal Human Colon Cells, 32 hrs [3]: 11.4 | cytotoxicity, Normal Human Colon Cells, 40 hrs [3]: 2 | cytotoxicity, Normal Human Colon Cells, 48 hrs [3]: 10.7 | cytotoxicity, Normal Human Lung Cells, 8 hrs [4]: 14.8 | cytotoxicity, Normal Human Lung Cells, 16 hrs [4]: 17.3 | cytotoxicity, Normal Human Lung Cells, 24 hrs [4]: 19.5 | cytotoxicity, Normal Human Lung Cells, 32 hrs [4]: 18.4 | cytotoxicity, Normal Human Lung Cells, 40 hrs [4]: 28 | cytotoxicity, Normal Human Lung Cells, 48 hrs [4]: 33.1 | EC50 [5]: 151 µM | percent cytotoxicity, H1993, 24 hrs [6]: 32.5% | percent cytotoxicity, H1993, 48 hrs [6]: 68.1% | percent cytotoxicity, H1993, 72 hrs [6]: 81.6% | Fold Change [7]: 6900 fold

B3: Affy6-I3W CAR (other)
chain: B1 chain with F115W
notes: CAR on transduced human T cells; I to W in HC CDR3; P2A remnant not included; also called MycT-Affy6-I3W CAR-SSTR2
cytotoxicity, Normal Human Kidney Cells, 8 hrs [1]: 23.6 | cytotoxicity, Normal Human Kidney Cells, 16 hrs [1]: 39.4 | cytotoxicity, Normal Human Kidney Cells, 24 hrs [1]: 46 | cytotoxicity, Normal Human Kidney Cells, 32 hrs [1]: 48.6 | cytotoxicity, Normal Human Kidney Cells, 40 hrs [1]: 43.6 | cytotoxicity, Normal Human Kidney Cells, 48 hrs [1]: 39.5 | cytotoxicity, Normal Human Liver Cells, 8 hrs [2]: 15.1 | cytotoxicity, Normal Human Liver Cells, 16 hrs [2]: 32.4 | cytotoxicity, Normal Human Liver Cells, 24 hrs [2]: 44 | cytotoxicity, Normal Human Liver Cells, 32 hrs [2]: 52.5 | cytotoxicity, Normal Human Liver Cells, 40 hrs [2]: 52.4 | cytotoxicity, Normal Human Liver Cells, 48 hrs [2]: 53.6 | cytotoxicity, Normal Human Colon Cells, 8 hrs [3]: 18.8 | cytotoxicity, Normal Human Colon Cells, 16 hrs [3]: 22.7 | cytotoxicity, Normal Human Colon Cells, 24 hrs [3]: 27 | cytotoxicity, Normal Human Colon Cells, 32 hrs [3]: 29.9 | cytotoxicity, Normal Human Colon Cells, 40 hrs [3]: 30.9 | cytotoxicity, Normal Human Colon Cells, 48 hrs [3]: 38.6 | cytotoxicity, Normal Human Lung Cells, 8 hrs [4]: 14.3 | cytotoxicity, Normal Human Lung Cells, 16 hrs [4]: 20.9 | cytotoxicity, Normal Human Lung Cells, 24 hrs [4]: 30.6 | cytotoxicity, Normal Human Lung Cells, 32 hrs [4]: 34 | cytotoxicity, Normal Human Lung Cells, 40 hrs [4]: 41.2 | cytotoxicity, Normal Human Lung Cells, 48 hrs [4]: 42.7 | EC50 [5]: 3.6 µM | percent cytotoxicity, H1993, 24 hrs [6]: 74.9% | percent cytotoxicity, H1993, 48 hrs [6]: 93.5% | percent cytotoxicity, H1993, 72 hrs [6]: 98.2% | Fold Change [7]: 167 fold

Reference: US20250276018A1 (AFFYIMMUNE THERAPEUTICS, published 2025)
